Laboratory results published in publication PMC5716276 (The Journal of Cell Biology, 2017).

Target: T1, Strep lyspersin (subunit of recombinant BORCΔBLOC-1) (UniProt Q96GS4 1-357)
T1 sequence: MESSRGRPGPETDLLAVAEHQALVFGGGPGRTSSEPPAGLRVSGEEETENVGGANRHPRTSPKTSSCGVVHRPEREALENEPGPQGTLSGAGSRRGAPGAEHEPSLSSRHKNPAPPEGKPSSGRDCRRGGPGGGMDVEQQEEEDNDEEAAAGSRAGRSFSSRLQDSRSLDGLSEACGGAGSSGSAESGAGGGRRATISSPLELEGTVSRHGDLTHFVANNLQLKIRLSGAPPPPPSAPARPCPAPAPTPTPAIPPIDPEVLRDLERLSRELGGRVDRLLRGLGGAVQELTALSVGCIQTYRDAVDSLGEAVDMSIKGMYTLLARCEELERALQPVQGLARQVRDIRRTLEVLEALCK
Experiment: cross-linking

B1: KxDL1 (subunit of recombinant BORCΔBLOC-1) (natural protein)
chain: MDLPDSASRVFCGRILSMVNTDDVNAIILAQKNMLDRFEKTNEMLLNFNNLSSARLQQMSERFLHHTRTLVEMKRDLDSIFRRIRTLKGKLARQHPEAFSHIPEASFLEEEDEDPIPPSTTTTIATSEQSTGSCDTSPDTVSPSLSPGFEDLSHVQPGSPAINGRSQTDDEEMTGE
binding result: binds
